Source: publication doi:10.1101/2024.03.13.584854 (bioRxiv, 2024)

Molecular target: T1, Saccharomyces cerevisiae Snf7 mutant (R52E) (Saccharomyces cerevisiae, UniProt P39929 1-240, R52E)
T1 sequence (looked up): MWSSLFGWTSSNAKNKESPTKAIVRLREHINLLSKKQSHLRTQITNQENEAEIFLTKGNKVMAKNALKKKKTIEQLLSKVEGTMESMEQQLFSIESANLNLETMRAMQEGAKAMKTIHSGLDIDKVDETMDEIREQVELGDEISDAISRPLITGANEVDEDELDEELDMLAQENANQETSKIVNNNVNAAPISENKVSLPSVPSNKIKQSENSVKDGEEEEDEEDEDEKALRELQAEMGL
Assay: co-sedimentation

Binder	binding result
Saccharomyces cerevisiae Vps24 (natural protein, UniProt P36095 1-224, looked up) MDYIKKAIWGPDPKEQQRRIRSVLRKNGRNIEKSLRELTVLQNKTQQLIKKSAKKNDVRTVRLYAKELYQINKQYDRMYTSRAQLDSVRMKIDEAIRMNTLSNQMADSAGLMREVNSLVRLPQLRNTMIELEKELMKSGIISEMVDDTMESVGDVGEEMDEAVDEEVNKIVEQYTNEKFKNVDQVPTVELAANEEEQEIPDEKVDEEADRMVNEMRERLRALQN	binds
Saccharomyces cerevisiae Vps2 (natural protein, UniProt P36108 1-232, looked up) MSLFEWVFGKNVTPQERLKKNQRALERTQRELEREKRKLELQDKKLVSEIKKSAKNGQVAAAKVQAKDLVRTRNYIQKFDNMKAQLQAISLRIQAVRSSDQMTRSMSEATGLLAGMNRTMNLPQLQRISMEFEKQSDLMGQRQEFMDEAIDNVMGDEVDEDEEADEIVNKVLDEIGVDLNSQLQSTPQNLVSNAPIAETAMGIPEPIGAGSEFHGNPDDDLQARLNTLKKQT	binds
